Experimental data taken from paper PMC3245871 (Journal of molecular biology, 2011).
Read-outs that look alike come from different tables or passages of the source.

Experiments:
[1] = target: T1, Z13-IL22-1 (human) (UniProt Q9GZX6); assay: ITC
T1 sequence: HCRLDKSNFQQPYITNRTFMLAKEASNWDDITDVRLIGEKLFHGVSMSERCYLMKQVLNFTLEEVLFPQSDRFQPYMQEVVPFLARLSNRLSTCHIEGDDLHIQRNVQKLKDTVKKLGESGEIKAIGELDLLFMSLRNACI

[2] = target: T2, Z13-IL22-2 (human, UniProt Q9GZX6, SLADNNT (64–70) replaced by residues WNWDDIT); assay: ITC
[3] = target: T2, Z13-IL22-2; assay: ITC; remark: listed apart in the source
[4] = target: T2, Z13-IL22-2; assay: ITC; remark: listed apart in the source
[5] = target: T2, Z13-IL22-2; assay: ITC; remark: listed apart in the source
[6] = target: mAb Z13e1 (human); assay: ELISA
[7] = target: WT IL-22 (human, UniProt Q9GZX6); assay: ELISA
[8] = target: T2, Z13-IL22-2; assay: ELISA

B1: Fab Z13e1 (Fab, V domains shown)
VH: EVQLLESGPGLLKPSETLSLTCTVSGGSMINYYWSWIRQPPGERPQWLGHIIYGGTTKYNPSLESRITISRDISKNQFSLRLNSVTAADTAIYYCARVAIGVSGFLNYYYYMDVWGSGTAVTVSS
VL: ELTQSPATLSLSPGERATLSCRASQSVGRNLGWYQQKPGQAPRLLIYDASNRATGIPARFSGSGSGTDFTLTISSLEPEDFAVYYCQARLLLPQTFGQGTKVEIK
Kd [1]: 15000 nM | dH [1]: -7.47 kcal/mol | dH [2]: -7.46 kcal/mol | dH [3]: -10.8 kcal/mol | dH [4]: -13.9 kcal/mol | Kd [5]: 73 nM

B2: negative peptide control 94.1 (peptide)
peptide: NWFDITNWLWYIKKKK
IC50 [6]: > 5000 nM

B3: mAb Z13e1 (antibody, V domains shown)
VH: EVQLLESGPGLLKPSETLSLTCTVSGGSMINYYWSWIRQPPGERPQWLGHIIYGGTTKYNPSLESRITISRDISKNQFSLRLNSVTAADTAIYYCARVAIGVSGFLNYYYYMDVWGSGTAVTVSS
VL: ELTQSPATLSLSPGERATLSCRASQSVGRNLGWYQQKPGQAPRLLIYDASNRATGIPARFSGSGSGTDFTLTISSLEPEDFAVYYCQARLLLPQTFGQGTKVEIK
binding result [7]: no binding | IC50 [8]: ~150 nM
